Assay results published in patent US20250320312A1 (OXITOPE PHARMA B V, published 2025).

How the values were obtained:
Assay in all cases: scFv ELISA
[1] = biological target: BSA (UniProt P02769)
[2] = biological target: Peptide 1: Biotin-…-[Tyr(PC)]-acid
[3] = biological target: Peptide 5: Biotin-…-[Tyr(PC)]-acid
[4] = biological target: T1, Peptide 4: Biotin-AGGGGSGGGGSGGGGSAAA-Tyr-acid (N-terminal biotin; C-terminal acid)
T1 construct: control peptide without PC
T1 peptide: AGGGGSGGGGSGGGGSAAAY
Description: (§1) For ELISA analysis of scFv binding, 96-well polystyrene plates were coated with Peptide 1, 4, 5, 8 or 100 μL BSA (10 μg/mL) in PBS at 4° C. overnight. Plates were washed three times with PBS-Tween and blocked with 100 μL 1% BSA-TBS for 1 hour at room temperature. 96-well streptavidin coated plates were coated with 100 μL biotinylated PC-peptides (1 μg/mL) in PBS for 1 hour at room temperature.
(§2) All plates were washed three times with PBS-Tween before 40 μL aliquots of PPE were added to assay plates along with 50 μL 10% BSA, and plates were incubated for 1 hour at room temperature. After washing, […] HRP conjugated anti-V5 in 5% BSA was added, and plates were incubated at room temperature for 30 mins. Plates were washed and 100 μL TMB substrate was added. Color was left to develop at room temperature before the reaction was stopped with 100 μL 1N HCl. The amount of scFv bound to each well was quantitated from absorbance measurement at 450 nm (OD450).

[5] = biological target: T2, Peptide 8: Biotin-AEAAAKEAAAKEAAAKEAAAKAAA-Tyr-acid (N-terminal biotin; C-terminal acid)
T2 construct: control peptide without PC
T2 peptide: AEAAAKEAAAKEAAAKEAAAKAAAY
Description: as §1, §2

Chain of BSA (P02769 25-607 limits assumed): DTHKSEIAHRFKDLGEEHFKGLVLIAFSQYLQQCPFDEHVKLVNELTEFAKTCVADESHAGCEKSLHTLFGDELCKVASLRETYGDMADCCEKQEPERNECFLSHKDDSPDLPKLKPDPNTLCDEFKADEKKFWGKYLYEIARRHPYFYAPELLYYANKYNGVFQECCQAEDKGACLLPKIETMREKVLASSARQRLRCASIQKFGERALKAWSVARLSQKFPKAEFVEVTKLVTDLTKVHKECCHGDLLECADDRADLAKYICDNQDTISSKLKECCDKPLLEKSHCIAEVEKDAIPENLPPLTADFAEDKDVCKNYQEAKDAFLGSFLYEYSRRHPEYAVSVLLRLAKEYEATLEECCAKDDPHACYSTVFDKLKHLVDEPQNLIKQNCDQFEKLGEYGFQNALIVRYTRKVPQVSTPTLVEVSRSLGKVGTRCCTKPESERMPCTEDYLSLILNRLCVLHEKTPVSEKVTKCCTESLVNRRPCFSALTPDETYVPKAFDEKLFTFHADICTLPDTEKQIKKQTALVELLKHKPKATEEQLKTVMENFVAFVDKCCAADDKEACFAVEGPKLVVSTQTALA

Row | Binder | OD450 [1] [OD450] | OD450 [2] [OD450] | OD450 [3] [OD450] | OD450 [4] [OD450] | OD450 [5] [OD450]
1 | PcOxP_DB01_D02 (scFv, V domains shown, scFv in periplasmic extract) VH: EVQLLESGGGLVQPGGSLRLSCAASGFEFSDFYMEWVRQAPGKGLEWVAASRGKGNSYTTEYADSVKGRFTISRDNSKNTLYLQMNSLRAEDTAVYYCARDYYGSSYWYFDVWGQGTLVTVSS VL: DIQMTQSPSSLSASVGDRVTITCTASESLYSSKHKVHYLAWYQQKPGKAPKLLIYGASNRYIGVPSRFSGSGSGTDFTLTISSLQPEDFATYYCGQFYSYPLTFGGGTKVEIK | 0.09 | 0.56 | 1.27 | 0.05 | 0.05
2 | PcOxP_DB01_H04 (scFv, V domains shown, scFv in periplasmic extract) VH: EVQLLESGGGLVQPGGSLRLSCAASGFAFSDFYMEWVRQAPGKGLEWVAASRNKANDYTTEYADSVKGRFTISRDNSKNTLYLQMNSLRAEDTAVYYCARDYYGSHYWYFDVWGQGTLVTVSS VL: DIQMTQSPSSLSASVGDRVTITCTASESLYSSKHKVHYLAWYQQKPGKAPKLLIYGASNLQSGVPSRFSGSGSGTDFTLTISSLQPEDFATYYCAQFYYYPLTFGGGTKVEIK | 0.11 | 2.01 | 1.92 | 0.07 | 0.07
3 | PcOxP_DB01_E05 (scFv, V domains shown, scFv in periplasmic extract) VH: EVQLLESGGGLVQPGGSLRLSCAASGFTFSDYYMEWVRQAPGKGLEWVAASRNKANDYTTEYADSVKGRFTISRDNSKNTLYLQMNSLRAEDTAVYYCARDYYGSSYWYFDVWGQGTLVTVSS VL: DIQMTQSPSSLSASVGDRVTITCTASESLYSSKHKVNYLAWYQQKPGKAPKLLIYGASNRYIGVPSRFSGSGSGTDFTLTISSLQPEDFATYYCAQFYQYPLTFGGGTKVEIK | 0.11 | 0.95 | 1.39 | 0.06 | 0.06
4 | PcOxP_DB01_G11 (scFv, V domains shown, scFv in periplasmic extract) VH: EVQLLESGGGLVQPGGSLRLSCAASGFTFSDGYMEWVRQAPGKGLEWVAASRNKNNDYTTEYADSVKGRFTISRDNSKNTLYLQMNSLRAEDTAVYYCARDYFGSSYWYFDVWGQGTLVTVSS VL: DIQMTQSPSSLSASVGDRVTITCTASESLYSSKHKVHYLAWYQQKPGKAPKLLIYGASNRYIGVPSRFSGSGSGTDFTLTISSLQPEDFATYYCAQFYSYPLTFGGGTKVEIK | 0.09 | 0.99 | 1.32 | 0.06 | 0.06
5 | PcOxP_DB01_E11 (scFv, V domains shown, scFv in periplasmic extract) VH: EVQLLESGGGLVQPGGSLRLSCAASGFTFSDFYMEWVRQAPGKGLEWVAASRNKANDYVTEYADSVKGRFTISRDNSKNTLYLQMNSLRAEDTAVYYCARDYYGSSYWYFDVWGQGTLVTVSS VL: DIQMTQSPSSLSASVGDRVTITCTASFSLYSSKHKVHYLAWYQQKPGKAPKLLIYGASNRYPGVPSRFSGSGSGTDFTLTISSLQPEDFATYYCAQFYYYPLTFGGGTKVEIK | 0.09 | 0.62 | 0.73 | 0.05 | 0.06
6 | PcOxP_DB01_G09 (scFv, V domains shown, scFv in periplasmic extract) VH: EVQLLESGGGLVQPGGSLRLSCAASGFTFSDYYMEWVRQAPGKGLEWVAASRNKANTYTTEYADSVKGRFTISRDNSKNTLYLQMNSLRAEDTAVYYCARDYYGSSYWYFDVWGQGTLVTVSS VL: DIQMTQSPSSLSASVGDRVTITCTASESLYSSKHKVHYLAWYQQKPGKAPKLLIYGASNLYSGVPSRFSGSGSGTDFTLTISSLQPEDFATYYCAQFYSYPLTFGGGTKVEIK | 0.11 | 0.92 | 1.4 | 0.06 | 0.05
7 | PcOxP_DB01_H10 (scFv, V domains shown, scFv in periplasmic extract) VH: EVQLLESGGGLVQPGGSLRLSCAASGFTFSDGYMEWVRQAPGKGLEWVAASRNKNNDYTTEYADSVKGRFTISRDNSKNTLYLQMNSLRAEDTAVYYCARDYYGSSYWYFDVWGQGTLVTVSS VL: DIQMTQSPSSLSASVGDRVTITCTASESLYSSKHKVHYLAWYQQKPGKAPKLLIYGASNRYFGVPSRFSGSGSGTDFTLTISSLQPEDFATYYCAQFYQYPLTFGGGTKVEIK | 0.08 | 0.6 | 1.39 | 0.06 | 0.06
8 | PcOxP_DB01_D05 (scFv, V domains shown, scFv in periplasmic extract) VH: EVQLLESGGGLVQPGGSLRLSCAASGFTFSDGYMEWVRQAPGKGLEWVAASRNKANDYTTEYADSVKGRFTISRDNSKNTLYLQMNSLRAEDTAVYYCARDYYGSPYWYFDVWGQGTLVTVSS VL: DIQMTQSPSSLSASVGDRVTITCTASESLYSSKHKVHYLAWYQQKPGKAPKLLIYGASNRYVGVPSRFSGSGSGTDFTLTISSLQPEDFATYYCAQFYSYPLTFGGGTKVEIK | 0.1 | 0.87 | 1.56 | 0.06 | 0.05
9 | PcOxP_DB01_G12 (scFv, V domains shown, scFv in periplasmic extract) VH: EVQLLESGGGLVQPGGSLRLSCAASGFTFSDGYMEWVRQAPGKGLEWVAASRNKANDYTTEYADSVKGRFTISRDNSKNTLYLQMNSLRAEDTAVYYCARDYYGSSYWYFDVWGQGTLVTVSS VL: DIQMTQSPSSLSASVGDRVTITCTASESLYSSKHKVHYLAWYQQKPGKAPKLLIYGASNRYFGVPSRFSGSGSGTDFTLTISSLQPEDFATYYCAQFYSYPLTFGGGTKVEIK | 0.09 | 0.75 | 1.33 | 0.07 | 0.06
10 | PcOxP_DB01_F04 (scFv, V domains shown, scFv in periplasmic extract) VH: EVQLLESGGGLVQPGGSLRLSCAASGFTFSSYYMEWVRQAPGKGLEWVAASRNKYNDYTTEYADSVKGRFTISRDNSKNTLYLQMNSLRAEDTAVYYCARDYYGSSYWYFDVWGQGTLVTVSS VL: DIQMTQSPSSLSASVGDRVTITCTASESLYSSKHKVHYLAWYQQKPGKAPKLLIYGAVNRYIGVPSRFSGSGSGTDFTLTISSLQPEDFATYYCAQFYRYPLTFGGGTKVEIK | 0.09 | 0.36 | 0.57 | 0.05 | 0.05
11 | PcOxP_DB01_G01 (scFv, V domains shown, scFv in periplasmic extract) VH: EVQLLESGGGLVQPGGSLRLSCAASGFTGSDFYMEWVRQAPGKGLEWVAASRNKGNSYTTEYADSVKGRFTISRDNSKNTLYLQMNSLRAEDTAVYYCARDYYGSSYWYFDVWGQGTLVTVSS VL: DIQMTQSPSSLSASVGDRVTITCTASESLYGSKHKVHYLAWYQQKPGKAPKLLIYGASNRYSGVPSRFSGSGSGTDFTLTISSLQPEDFATYYCAQFYSYPLTFGGGTKVEIK | 0.09 | 0.58 | 1.33 | 0.06 | 0.05
12 | PcOxP_DB01_D09 (scFv, V domains shown, scFv in periplasmic extract) VH: EVQLLESGGGLVQPGGSLRLSCAASGFTESDFYMEWVRQAPGKGLEWVAASRNKANDYTTEYADSVKGRFTISRDNSKNTLYLQMNSLRAEDTAVYYCARDYYGSSYWYFDVWGQGTLVTVSS VL: DIQMTQSPSSLSASVGDRVTITCTASESLYSAKHKVHYLAWYQQKPGKAPKLLIYGSSNRYIGVPSRFSGSGSGTDFTLTISSLQPEDFATYYCAQFYDYPLTFGGGTKVEIK | 0.07 | 0.27 | 0.66 | 0.05 | 0.05
13 | PcOxP_DB01_E04 (scFv, V domains shown, scFv in periplasmic extract) VH: EVQLLESGGGLVQPGGSLRLSCAASGFTFSDAYMEWVRQAPGKGLEWVAASRNKANDYTTEYADSVKGRFTISRDNSKNTLYLQMNSLRAEDTAVYYCARDYYGSSYWYFDTWGQGTLVTVSS VL: DIQMTQSPSSLSASVGDRVTITCTASESLYSSKHKVHYLAWYQQKPGKAPKLLIYGASNRYDGVPSRFSGSGSGTDFTLTISSLQPEDFATYYCAQFYSYPLTFGGGTKVEIK | 0.07 | 0.55 | 1.12 | 0.05 | 0.04
14 | PcOxP_DB01_E06 (scFv, V domains shown, scFv in periplasmic extract) VH: EVQLLESGGGLVQPGGSLRLSCAASGFTFSDQYMEWVRQAPGKGLEWVAASRNKANDYTTEYADSVKGRFTISRDNSKNTLYLQMNSLRAEDTAVYYCARDYYGSSYWYFDLWGQGTLVTVSS VL: DIQMTQSPSSLSASVGDRVTITCTASESLYSSKHKVHYVAWYQQKPGKAPKLLIYGASNRYIGVPSRFSGSGSGTDFTLTISSLQPEDFATYYCAQFYYYPLTFGGGTKVEIK | 0.09 | 0.68 | 1.05 | 0.05 | 0.05
15 | PcOxP_DB01_F10 (scFv, V domains shown, scFv in periplasmic extract) VH: EVQLLESGGGLVQPGGSLRLSCAASGFTFSSYYMEWVRQAPGKGLEWVAASRNKANDYTTEYADSVKGRFTISRDNSKNTLYLQMNSLRAEDTAVYYCARDYYGSSYWYFDVWGQGTLVTVSS VL: DIQMTQSPSSLSASVGDRVTITCTASESLYSSKHKVHYLAWYQQKPGKAPKLLIYGASNGYIGVPSRFSGSGSGTDFTLTISSLQPEDFATYYCAQFYTYPLTFGGGTKVEIK | 0.09 | 0.68 | 0.98 | 0.05 | 0.05
16 | PcOxP_DB01_D08 (scFv, V domains shown, scFv in periplasmic extract) VH: EVQLLESGGGLVQPGGSLRLSCAASGFTFSDAYMEWVRQAPGKGLEWVAASRNKANDYTTEYADSVKGRFTISRDNSKNTLYLQMNSLRAEDTAVYYCARDYYGSSYWYFDSWGQGTLVTVSS VL: DIQMTQSPSSLSASVGDRVTITCTASESLYSSKHKVHYLAWYQQKPGKAPKLLIYGASNRYIGVPSRFSGSGSGTDFTLTISSLQPEDFATYYCAQFYSYPLTFGGGTKVEIK | 0.08 | 0.58 | 1.08 | 0.05 | 0.05
